Literature values, collected in PMC7788954.

Target: Sans SAM-PBM (Homo sapiens) (UniProt Q495M9)
Sequence (Q495M9 388-461): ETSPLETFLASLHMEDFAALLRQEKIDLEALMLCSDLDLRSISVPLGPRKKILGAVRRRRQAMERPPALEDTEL

Sequence of harmonin N-terminal HHD-containing supramodule (Q9Y6N9 1-192): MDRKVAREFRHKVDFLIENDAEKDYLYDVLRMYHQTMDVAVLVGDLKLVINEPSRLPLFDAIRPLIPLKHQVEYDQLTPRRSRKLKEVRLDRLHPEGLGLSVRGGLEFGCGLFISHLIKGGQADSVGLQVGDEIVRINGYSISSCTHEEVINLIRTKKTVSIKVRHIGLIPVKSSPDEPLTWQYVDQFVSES

## harmonin N-terminal HHD-containing supramodule (from UniProt Q9Y6N9)
  Kd: 1 nM
